Reference: the supplement of paper PMC12338614
± gives the uncertainty stated by the source.

B1: library; numbered along this chain (parent)
chain: MEVVDPQQLGMFTEGELMSVGMDTFIHRIDSTEVIYQPRRKRAKLIGKYLMGDLLGEGSYGKVKEVLDSETLCRRAVKILKKKKLRRIPNGEANVKKEIQLLRRLRHKNVIQLVDVLYNEEKQKMYMVMEYCVCGMQEMLDSVPEKRFPVCQAHGYFCQLIDGLEYLHSQGIVHKDIKPGNLLLTTGGTLKISDLGVAEALHPFAADDTCRTSQGSPAFQPPEIANGLDTFSGFKVDIWSAGVTLYNITTGLYPFEGDNIYKLFENIGKGSYAIPGDCGPPLSDLLKGMLEYEPAKRFSIRQIRQHSWFRKKHPPAEAPVPIPPSPDTKDRWRSMTVVPYLEDLHGADEDEDLFDIEDDIIYTQDFTVPGQVPEEEASHNGQRRGLPKAVCMNGTEAAQLSTKSRAEGRAPNPARKACSASSKIRRLSACKQQ

Variants of: B1
Experiment: STK11 functional score (HeLa growth suppression), rescaled enrichment; synonymous median = 1, nonsense median = 0 (normalised score)
Conditions: with HeLa; variant type: missense
Description: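 Deep mutational scan (TileSeq/POPCode codon randomisation) of full-length codon-optimised STK11 cDNA integrated at a Bxb1 landing pad (AAVS1) in HeLa cells. Restoring functional STK11 suppresses HeLa proliferation. Variant frequencies were measured by NGS before and after about two weeks of growth. The error-corrected enrichment log-ratio was rescaled so that synonymous median = 1 and nonsense median = 0, scores above 1 were compressed, and codon-level and three biological replicate scores were combined; error is the bootstrapped standard error. Scale: synonymous median = 1, nonsense median = 0; below 0.5 = damaging.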

Question: For L201V, which STK11 functional score is on record?
Answer: Its STK11 functional score is 0.808 ± 0.096.

Question: With L201N as the variant, how does the STK11 functional score read?
Answer: The STK11 functional score was 1.19 ± 0.12.

Question: Which STK11 functional score does the source give for D258H here?
Answer: The STK11 functional score was 1.62 ± 0.55.

Question: P254V was tested. Which STK11 functional score did it give?
Answer: Its STK11 functional score is 0.86 ± 0.31.

Question: With I267M as the variant, how does the STK11 functional score read?
Answer: The STK11 functional score was 0.815 ± 0.11.

Question: With M127R as the variant, how does the STK11 functional score read?
Answer: The STK11 functional score was 0.302 ± 0.094.

Question: D207V was tested. Which STK11 functional score did it give?
Answer: The STK11 functional score was 1.09 ± 0.41.

Question: How did the STK11 functional score turn out when D365H was run?
Answer: Its STK11 functional score is 1.34 ± 0.34.

Question: For E130W, which STK11 functional score is on record?
Answer: Its STK11 functional score is -0.0647 ± 0.079.

Question: How did the STK11 functional score turn out when H345M was run?
Answer: The STK11 functional score was 1.54 ± 0.17.

Question: With Q302W as the variant, how does the STK11 functional score read?
Answer: Its STK11 functional score is 0.804 ± 0.68.

Question: With P38W as the variant, how does the STK11 functional score read?
Answer: Its STK11 functional score is 0.876 ± 0.077.

Question: Which STK11 functional score does the source give for N393S here?
Answer: The STK11 functional score was 1.09 ± 0.52.

Question: How did the STK11 functional score turn out when D68S was run?
Answer: The STK11 functional score was 1.29 ± 0.27.

Question: For P373G, which STK11 functional score is on record?
Answer: Its STK11 functional score is 1.53 ± 0.25.

Question: P373R was tested. Which STK11 functional score did it give?
Answer: The STK11 functional score was 0.782 ± 0.29.

Question: With P373F as the variant, how does the STK11 functional score read?
Answer: The STK11 functional score was 1.26 ± 0.47.

Question: T402P was tested. Which STK11 functional score did it give?
Answer: Its STK11 functional score is 1.54 ± 0.46.

Question: For T402M, which STK11 functional score is on record?
Answer: The STK11 functional score was 1.23 ± 0.11.

Question: Which STK11 functional score does the source give for T402A here?
Answer: The STK11 functional score was 1.42 ± 0.28.

Question: How did the STK11 functional score turn out when I46H was run?
Answer: Its STK11 functional score is 1.58 ± 0.33.

Question: Which STK11 functional score does the source give for I46D here?
Answer: The STK11 functional score was 0.149 ± 0.15.

Question: How did the STK11 functional score turn out when I46P was run?
Answer: The STK11 functional score was 0.555 ± 0.13.

Question: Which STK11 functional score does the source give for P275S here?
Answer: Its STK11 functional score is 0.957 ± 0.27.

Question: Which STK11 functional score does the source give for R40C here?
Answer: Its STK11 functional score is 1.39 ± 0.074.

Question: How did the STK11 functional score turn out when R40H was run?
Answer: The STK11 functional score was 1.09 ± 0.64.

Question: For Y292D, which STK11 functional score is on record?
Answer: Its STK11 functional score is 1.09 ± 0.67.

Question: With S421R as the variant, how does the STK11 functional score read?
Answer: Its STK11 functional score is 1.44 ± 0.41.

Question: How did the STK11 functional score turn out when S421F was run?
Answer: The STK11 functional score was 1.08 ± 0.5.

Question: With N109H as the variant, how does the STK11 functional score read?
Answer: The STK11 functional score was -0.0132 ± 0.079.

Question: N109L was tested. Which STK11 functional score did it give?
Answer: The STK11 functional score was 0.662 ± 0.11.

Question: With A414G as the variant, how does the STK11 functional score read?
Answer: The STK11 functional score was 1.21 ± 0.26.

Question: For L353I, which STK11 functional score is on record?
Answer: Its STK11 functional score is 1.19 ± 0.15.

Question: V337W was tested. Which STK11 functional score did it give?
Answer: The STK11 functional score was 0.54 ± 0.15.

Question: G288H was tested. Which STK11 functional score did it give?
Answer: Its STK11 functional score is 1.61 ± 0.19.

Question: With D30S as the variant, how does the STK11 functional score read?
Answer: Its STK11 functional score is 1.7 ± 0.19.

Question: How did the STK11 functional score turn out when A398S was run?
Answer: The STK11 functional score was 1.16 ± 0.25.

Question: For I356F, which STK11 functional score is on record?
Answer: Its STK11 functional score is 1.15 ± 0.18.

Question: With I356H as the variant, how does the STK11 functional score read?
Answer: Its STK11 functional score is 1.51 ± 0.22.

Question: How did the STK11 functional score turn out when Q364I was run?
Answer: Its STK11 functional score is 1.26 ± 0.47.

Question: Which STK11 functional score does the source give for G381P here?
Answer: Its STK11 functional score is 1.61 ± 0.28.

Question: Which STK11 functional score does the source give for G381C here?
Answer: The STK11 functional score was 1.1 ± 0.44.

Question: Which STK11 functional score does the source give for S428T here?
Answer: Its STK11 functional score is 1.56 ± 0.24.

Question: Which STK11 functional score does the source give for N412A here?
Answer: Its STK11 functional score is 1.53 ± 0.26.

Question: With L55C as the variant, how does the STK11 functional score read?
Answer: Its STK11 functional score is 1.43 ± 0.52.

Question: Which STK11 functional score does the source give for R426C here?
Answer: The STK11 functional score was 1.12 ± 0.4.

Question: For P369R, which STK11 functional score is on record?
Answer: The STK11 functional score was 1.44 ± 0.18.

Question: A153I was tested. Which STK11 functional score did it give?
Answer: Its STK11 functional score is 0.28 ± 0.27.

Question: With A153F as the variant, how does the STK11 functional score read?
Answer: The STK11 functional score was 0.0706 ± 0.09.

Question: How did the STK11 functional score turn out when E357T was run?
Answer: The STK11 functional score was 1.56 ± 0.17.

Question: How did the STK11 functional score turn out when E57R was run?
Answer: Its STK11 functional score is 1.13 ± 0.17.

Question: For C134S, which STK11 functional score is on record?
Answer: Its STK11 functional score is 1.49 ± 0.081.

Question: How did the STK11 functional score turn out when C134I was run?
Answer: Its STK11 functional score is 1.42 ± 0.084.

Question: C134M was tested. Which STK11 functional score did it give?
Answer: Its STK11 functional score is 0.248 ± 0.08.

Question: A200G was tested. Which STK11 functional score did it give?
Answer: Its STK11 functional score is 0.439 ± 0.33.

Question: With K403N as the variant, how does the STK11 functional score read?
Answer: The STK11 functional score was 1.42 ± 0.6.

Question: K403C was tested. Which STK11 functional score did it give?
Answer: The STK11 functional score was 0.656 ± 0.13.

Question: Which STK11 functional score does the source give for L54S here?
Answer: The STK11 functional score was 1.2 ± 0.21.

Question: V150T was tested. Which STK11 functional score did it give?
Answer: The STK11 functional score was 0.385 ± 0.47.

Question: For V150W, which STK11 functional score is on record?
Answer: The STK11 functional score was 0.631 ± 0.074.

Question: V150H was tested. Which STK11 functional score did it give?
Answer: Its STK11 functional score is 1.26 ± 0.38.

Question: For P411F, which STK11 functional score is on record?
Answer: Its STK11 functional score is 0.906 ± 0.61.

Question: How did the STK11 functional score turn out when K84W was run?
Answer: The STK11 functional score was 1.14 ± 0.17.

Question: Which STK11 functional score does the source give for C132G here?
Answer: Its STK11 functional score is 0.44 ± 0.083.

Question: C132H was tested. Which STK11 functional score did it give?
Answer: The STK11 functional score was 1.16 ± 0.21.

Question: With R297T as the variant, how does the STK11 functional score read?
Answer: The STK11 functional score was -0.0209 ± 0.12.

Question: How did the STK11 functional score turn out when I424T was run?
Answer: Its STK11 functional score is 1.49 ± 0.18.

Question: How did the STK11 functional score turn out when I424R was run?
Answer: The STK11 functional score was 1.5 ± 0.17.

Question: How did the STK11 functional score turn out when I424L was run?
Answer: The STK11 functional score was 1.34 ± 0.18.

Question: V133P was tested. Which STK11 functional score did it give?
Answer: The STK11 functional score was 1.53 ± 0.38.

Question: For Q159V, which STK11 functional score is on record?
Answer: The STK11 functional score was 0.324 ± 0.074.

Question: Which STK11 functional score does the source give for Q159N here?
Answer: The STK11 functional score was 0.806 ± 0.79.

Question: With Q159E as the variant, how does the STK11 functional score read?
Answer: The STK11 functional score was 1.25 ± 0.55.

Question: L386A was tested. Which STK11 functional score did it give?
Answer: The STK11 functional score was 1.6 ± 0.23.

Question: Which STK11 functional score does the source give for L386R here?
Answer: The STK11 functional score was 1.43 ± 0.25.

Question: With L386E as the variant, how does the STK11 functional score read?
Answer: The STK11 functional score was 1.55 ± 0.22.

Question: How did the STK11 functional score turn out when Y166A was run?
Answer: The STK11 functional score was 1.47 ± 0.24.

Question: With Y166V as the variant, how does the STK11 functional score read?
Answer: Its STK11 functional score is 1.14 ± 0.22.

Question: For Y166P, which STK11 functional score is on record?
Answer: The STK11 functional score was 0.994 ± 0.26.

Question: How did the STK11 functional score turn out when A218E was run?
Answer: The STK11 functional score was 1.23 ± 0.24.

Question: Which STK11 functional score does the source give for A218G here?
Answer: The STK11 functional score was 0.816 ± 0.14.

Question: K329Q was tested. Which STK11 functional score did it give?
Answer: Its STK11 functional score is 1.1 ± 0.39.

Question: How did the STK11 functional score turn out when A43V was run?
Answer: Its STK11 functional score is 0.673 ± 0.17.
